Measurements: patent US20190032056, “STEM-LOOP COMPOSITIONS AND METHODS FOR INHIBITING FACTOR D” (Vitrisa Therapeutics, Inc., published 2019)

Tests used:
[1] = target: T1, complement Factor D (fD) in C1q-depleted human serum (Homo sapiens, UniProt P00746 SEQ:1-228); test: inhibition; hemolysis; settings: protein: extract; tags: endogenous fD, about 9.6 nM in 10% serum; hairpin
complement Factor D (fD) [2] = target: T2, complement Factor D (fD) (Homo sapiens, UniProt P00746 SEQ:1-228); test: competition; signal reduced about 75-90% by 100 nM AFD anti-fD Fab; SB1T, 37 C; settings: tags: His-tagged, immobilized on magnetic His capture beads; label: Dy650 via hybridized 2'-OMe reverse oligo
T2 sequence (P00746 26-253): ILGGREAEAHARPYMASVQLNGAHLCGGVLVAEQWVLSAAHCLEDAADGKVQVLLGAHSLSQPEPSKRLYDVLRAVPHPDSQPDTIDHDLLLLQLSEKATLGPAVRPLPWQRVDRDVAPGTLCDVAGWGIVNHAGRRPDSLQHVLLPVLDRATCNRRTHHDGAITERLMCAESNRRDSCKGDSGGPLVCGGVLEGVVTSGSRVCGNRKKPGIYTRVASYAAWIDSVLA
Experimental: Competition binding assays were performed using a clone of an anti-fD Fab with an amino acid sequence of heavy chain variable region according to SEQ ID NO:7 and light chain variable region according to SEQ ID NO:8 (hereinafter, “AFD”) to further assess binding. For the competition assays, beads labelled with fD were first incubated with 50 nM round or individual aptamer, in 50 μl SB1T (with ssDNA and BSA), for 30 minutes at 37° C. The beads were then washed with SB1T to remove unbound aptamers and incubated with or without 100 nM AFD for 30 minutes at 37° C. Following incubation, the beads were washed three times with SB1T, and assayed by flow cytometry (FIG. 12). […] In cases where aptamers are sufficiently outcompeted by AFD as described above, such aptamers were presumed to be binding to the exosite or the self-inhibitory loop of fD.

complement Factor D (fD) [3] = target: T2, complement Factor D (fD); test: flow; bead-based direct binding; settings: tags: His-tagged recombinant, bead-immobilized via His capture beads (flow) or anti-His Eu (TR-FRET); hairpin
[4] = target: T1, complement Factor D (fD) in …; test: inhibition; hemolysis; settings: protein: extract; tags: endogenous fD, about 9.6 nM in 10% serum; hairpin; remark: listed apart in the source
Experimental: (§1) In V-bottom 96-well plates the following reagents were added to a final volume of 250 μL: appropriate volume of 1× Veronal buffer with 0.1% gelatin, 100 μL aptamer, 30 μL of C1q-depleted human serum and 20 μl RBCs. This mixture was incubated for 25 minutes at room temperature, then the reaction was stopped by the addition of 5 μL of 500 mM EDTA. The plate was centrifuged for 5 minutes at 500×g at room temperature, then 100 μL of supernatant was removed and the extent of RBC lysis was determined by measuring absorbance at 405 nm.
The following nine aptamers with 2′OMe-Gs in Stem 1 (S1) were synthesized: Aptamer 76 (2′OMe-Gs substituted in Stem 1 (S1) of Aptamer 39), Aptamer 116 (Aptamer comprising loop 2 (L2) of Aptamer 39 and Stem 1 (51) of Aptamer 15 with 2′OMe-Gs in Stem 1 (S1)), Aptamer 102 (4 base pair 2′OMe-G Stem 1 (S1) variant of Aptamer 76), Aptamer 104 (4 base pair 2′OMe-G Stem 1 (S1) variant of Aptamer 74), Aptamer 106 (Aptamer 88 with 2′OMe-G Stem 1 (S1)), Aptamer 107 (4 base pair 2′OMe-G Stem 1 (S1) variant of Aptamer 88), Aptamer 108 (3 base pair 2′OMe-G Stem 1 (S1) variant of Aptamer 92), Aptamer 109 (4 base pair 2′OMe-G Stem 1 (S1) variant of Aptamer 98) and, Aptamer 99 (4 base pair 2′OMe-G Stem 1 (S1) variant of Aptamer 60).

complement Factor D (fD) [5] = target: T2, complement Factor D (fD); test: SPR; settings: tags: amine-coupled to dextran chip for SPR; free in esterase assay; hairpin
Experimental: The binding affinity of aptamers for fD was determined by surface plasmon resonance (SPR) on a Reichert4 SPR System, where either aptamer or fD was immobilized as ligand on a solid surface and the interactant analyte was flowed in solution over the immobilized ligand (Table 20).

[6] = target: T1, complement Factor D (fD) in …; test: inhibition; hemolysis; settings: protein: extract; tags: endogenous fD, about 9.6 nM in 10% serum; hairpin; remark: listed apart in the source
Experimental: as §1
To this end, series of aptamer variants were designed based on the loop L2 sequences for Aptamers 15, 39, and 38 in which the sequence of S1 and S2 were altered while maintaining pairing (Table 17). These included Aptamers 90, and 94-98. Additionally, a truncate of Aptamer 38 (Aptamer 91) was designed with 3 base pairs in stem S1. The stem elements (S1 and S2) from this molecule were also used to generate Aptamer 92, which contained L2 from Aptamer 39.

T1 sequence (P00746 26-253): as above

CAGCCGUGCUAGUAUUGGCAUUGGCUAGAAGUUAGGCUG (ssRNA, 2'-F G; 2'-OMe A,C,U; 5' C6NH2; 3' idT) [Aptamer 34]
IC50 [1]: 6.9 nM

B1: C2 (ssRNA)
RNA: GGGAGUGUGUACGAGGCAUUAGUCCGCCGAAGUCUUUUGGCUCGGUUUUUUCAAGGUCGGCGGCUUUGAUACUUGAUCGCCCUAGAAGC
modifications: 2'-F G; 2'-OMe A, C, U
binding result (complement Factor D (fD) [2]): binds

B2: Aptamer 1723 (ssRNA)
RNA: CCGCCUUGCCAGUAUUGGCUUAGGCUGGAAGUUUGGCGG
modifications: 2'-F G except 2'-OMe G at 3,12,24,27,28,35,36,38,39; 2'-OMe A,C,U; 5' C6SH; 3' idT
Kd (complement Factor D (fD) [3]): 45 nM

CCGCCUUGCCAGUAUUGGCUUAGGCUGGAAGUUUGGCGG (ssRNA, 2'-F G except 2'-OMe G at 3,12,27,28,35,36,38,39; 2'-OMe A,C,U; 5' C6SH; 3' idT) [Aptamer 1722]
Kd (complement Factor D (fD) [3]): 11 nM

CCGACUUGCCAGUGUUGGCUUUGGCUGGAAGUUUGUCGG (ssRNA, 2'-F G; 2'-OMe A,C,U; 5' C6NH2; 3' idT) [Aptamer 36]
IC50 [1]: 8.2 nM

CCGACUUGCCAGUAUUGGCUUAGGCUGGAAGUUUGUCGG (ssRNA, 2'-F G; 2'-OMe A,C,U; 5' C6NH2; 3' idT) [Aptamer 88]
IC50 [1]: < 10 nM

CCGACUUGCCAGUAUUGGCCUAGGCUGGAAGUUUGUCGG (ssRNA, 2'-F G; 2'-OMe A,C,U; 5' C6NH2; 3' idT) [Aptamer 66]
IC50 [1]: ~100 nM

CCGCCUUGCCAGUAUUGGCUUAGGCUGGAAGUUUGGCGG (ssRNA, 2'-F G except 2'-OMe G at 3,12,27,35,36,38,39; 2'-OMe A,C,U; 5' C6SH; 3' idT) [Aptamer 1721]
Kd (complement Factor D (fD) [3]): 4.5 nM

CCGCCUUGCCAGUAUUGGCGAUGGCUGGAAGUUUGGCGG (ssRNA, 2'-F G except 2'-OMe G in stem 1; 2'-OMe A,C,U; 5' C6NH2; 3' idT) [Aptamer 116]
IC50 [4]: < 10 nM

CCGACUUGCCAGUAUUGGCGAAGGCUGGAAGUUUGUCGG (ssRNA, 2'-F G; 2'-OMe A,C,U; 5' C6NH2; 3' idT) [Aptamer 71]
IC50 [1]: < 10 nM

CCGACUUGCCAGUAUUGGCUCUGGCUGGAAGUUUGUCGG (ssRNA, 2'-F G; 2'-OMe A,C,U; 5' C6NH2; 3' idT) [Aptamer 72]
IC50 [1]: ~100 nM

CCGACUUGCCAGUAUUAGCUUAGGCUGGAAGUUUGUCGG (ssRNA, 2'-F G; 2'-OMe A,C,U; 5' C6NH2; 3' idT) [Aptamer 64]
IC50 [1]: ~100 nM

CCGACUUGCCAGUAUUGGCGCAGGCUGGAAGUUUGUCGG (ssRNA, 2'-F G; 2'-OMe A,C,U; 5' C6NH2; 3' idT) [Aptamer 69]
IC50 [1]: < 10 nM

CCGACUUGCCAGUAUAGGCUCAGGCUGGAAGUUUGUCGG (ssRNA, 2'-F G; 2'-OMe A,C,U; 5' C6NH2; 3' idT) [Aptamer 62]
IC50 [1]: ~10 nM

CGACUUGCGGGUAUUGGCGAUGGCCCGAAGUUUGUCG (ssRNA, 2'-F G; 2'-OMe A,C,U; 5' C6NH2; 3' idT) [Aptamer 55]
IC50 [1]: ~10 nM

GCCUUGCGGGUAUUGGCGAUGGCCCGAAGUUUGGC (ssRNA, 2'-F G except 2'-OMe G in stem 1; 2'-OMe A,C,U; 5' C6NH2; 3' idT) [Aptamer 108]
Kd (complement Factor D (fD) [5]): 2.7 nM | IC50 [4]: < 10 nM

GCCUUGAGGGUAUUGGCGAUGGCCCUAAGUUUGGC (ssRNA, 2'-F G; 2'-OMe A,C,U; 5' C6NH2; 3' idT) [Aptamer 93]
IC50 [6]: ~100 nM

GCCUUGCGGGUAUUGGCGAUGGCCCGAAGUUUGGC (ssRNA, 2'-F G; 2'-OMe A,C,U; 5' C6NH2; 3' idT) [Aptamer 92]
IC50 [6]: ~10 nM

CGCAUUGCUAGUAUUGGCUUAGGCUAGAAGUGUUGCG (ssRNA, 2'-F G; 2'-OMe A,C,U; 5' C6NH2; 3' idT) [Aptamer 40]
IC50 [1]: 5.8 nM

CCGACUUGCCAGUAUUGGCGAUGGCUGGAAGUUUGUCGG (ssRNA, 2'-F G; 2'-OMe A,C,U; 5' C6NH2; 3' idT) [Aptamer 39]
IC50 [1]: 3.1 nM

CCGACUUGCCAGUAUUGGCGCUGGCUGGAAGUUUGUCGG (ssRNA, 2'-F G; 2'-OMe A,C,U; 5' C6NH2; 3' idT) [Aptamer 68]
IC50 [1]: ~10 nM

CCGACUUGCGGGUAUUGGCGAUGGCCCGAAGUUUGUCGG (ssRNA, 2'-F G; 2'-OMe A,C,U; 5' C6NH2; 3' idT) [Aptamer 54]
IC50 [1]: ~10 nM

GGCCUUGCCCGUAUUGGCGAUGGCGGGAAGUUUGGCC (ssRNA, 2'-F G except 2'-OMe G in stem 1; 2'-OMe A,C,U; 5' C6NH2; 3' idT) [Aptamer 109]
Kd (complement Factor D (fD) [5]): 1.07 nM | IC50 [4]: < 10 nM

GGCCUUGCCCGUAUUGGCGAUGGCGGGAAGUUUGGCC (ssRNA, 2'-F G; 2'-OMe A,C,U; 5' C6NH2; 3' idT) [Aptamer 98]
IC50 [6]: < 10 nM

CCGCCUUGCGAGUAAUGGCGUAGGCUCGAAGUUGGGCGG (ssRNA, 2'-F G; 2'-OMe A,C,U; 5' C6NH2; 3' idT) [Aptamer 35]
IC50 [1]: 5.4 nM

CGCCUUGCCAGUAUUGGCUUAGGCUGGAAGUUUGGCG (ssRNA, 2'-F G except 2'-OMe G in stem 1; 2'-OMe A,C,U; 5' C6NH2; 3' idT) [Aptamer 104]
Kd (complement Factor D (fD) [5]): 3.9 nM | IC50 [4]: < 10 nM

CGCCUUGCCAGUAUUGGCGAUGGCUGGAAGUUUGGCG (ssRNA, 2'-F G except 2'-OMe G in stem 1; 2'-OMe A,C,U; 5' C6NH2; 3' idT) [Aptamer 99]
Kd (complement Factor D (fD) [5]): 3.34 nM | IC50 [4]: < 10 nM

CGCCUUGCCAGUAUUGGCGAUGGCUGGAAGUUUGGCG (ssRNA, 2'-F G; 2'-OMe A,C,U; 5' C6NH2; 3' idT) [Aptamer 60]
IC50 [1]: < 10 nM

CGCCUUGCCAGUAUUGGCUUAGGCUGGAAGUUUGGCG (ssRNA, 2'-F G; 2'-OMe A,C,U; 5' C6NH2; 3' idT) [Aptamer 16]
IC50 [6]: < 10 nM

CGACUUGCCAGUAUUGGCUUAGGCUGGAAGUUUGUCG (ssRNA, 2'-F G except 2'-OMe G in stem 1; 2'-OMe A,C,U; 5' C6NH2; 3' idT) [Aptamer 107]
Kd (complement Factor D (fD) [5]): 4.2 nM | IC50 [4]: < 10 nM

CUGCCUUGCGGGUAUUGGCGUUGGCCCGAAGUUUGGCUG (ssRNA, 2'-F G; 2'-OMe A,C,U; 5' C6NH2; 3' idT) [Aptamer 38]
IC50 [1]: 5.5 nM

CUGCCUUGCGGGUAUUGGCGAUGGCCCGAAGUUUGGCUG (ssRNA, 2'-F G; 2'-OMe A,C,U; 5' C6NH2; 3' idT) [Aptamer 57]
IC50 [1]: ~10 nM

CCGACUUGCGGGUAUUGGCGUUGGCCCGAAGUUUGUCGG (ssRNA, 2'-F G; 2'-OMe A,C,U; 5' C6NH2; 3' idT) [Aptamer 59]
IC50 [1]: < 10 nM

B3: C3 (ssRNA)
RNA: GGGAGUGUGUACGAGGCAUUAGGCCGCCACCUCGUUUGAUUGCGGUUGUUCGGCCGCGGGCGGCUUUGAUACUUGAUCGCCCUAGAAGC
modifications: 2'-F G; 2'-OMe A, C, U
binding result (complement Factor D (fD) [2]): binds

CAGCCAUGCAAGUAUUGGCUUAGGCUUGAAGUUCGGCUG (ssRNA, 2'-F G; 2'-OMe A,C,U; 5' C6NH2; 3' idT) [Aptamer 33]
IC50 [1]: 11 nM

B4: C1 (ssRNA)
RNA: GGGAGUGUGUACGAGGCAUUAGGCCGCCACCCAAACUGCAGUCCUCGUAAGUCUGCCUGGCGGCUUUGAUACUUGAUCGCCCUAGAAGC
modifications: 2'-F G; 2'-OMe A, C, U
binding result (complement Factor D (fD) [2]): binds
